Assay: yeast display, Sf9 membrane polyspecificity reagent, FACS + sequencing; frameworks hold sequencing errors
How it was run: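 A nanobody's polyreactivity label depends on the gate it was sorted from. Yeast display cells were stained with 10% biotinylated, detergent-solubilized Sf9 membrane reagent for 1 hour at 4 °C, enriched on streptavidin microbeads and sorted by FACS. The low and high (top ~1%) gates were set on anti-HA fluorescence for expression and streptavidin fluorescence for reagent binding.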

Row | Sequence | polyreactivity (PSR sort gate)
1 | QVQLVESGGGLVQAGGSLRLSCAASGSIFGYNAMGWYRQAPGKEREFVAAISWSGGRTYYADSVKGRFTISRDNAKYTVYLQMNSLKPEDTAVYYCAAPSRPAPRFDYWGQGTQVTVSS | low polyreactivity
2 | QVQLVESGGGLVQAGGSLRLSCAASGSIFGYNAMGWYRQAPGKEREFVAAITSGGSTYYADSVKGRFTISRDNAKNTVYLQMNSLKPEDTAVYYCRRRNVYSTRRYDYWGQGTQVTVSS | high polyreactivity
3 | QVQLVESGGGLVQAGGSLRLSCAASGSIFGYNAMGWYRQAPGKEREFVASIRYRGGSTYYADSVKGRFTISRDNAKNTVYLQMNSLKPEDTAVYYSAAYWWGVSKRQYGYWGQGTQVTVSS | high polyreactivity
4 | QVQLVESGGGLVQAGGSLRLSCAASGSIFGYNAMGWYRQAPGKERELVATISSGGSTNYADSVKGRFTISRDNAKNTVYLQMNSLKPEDTAVYYCAKEYGSIIPYDYWGQGTQVTVSS | low polyreactivity
5 | QVQLVESGGGLVQAGGSLRLSCAASGSIFGYNDMGCYRQAPGKEREMVAAITTSGDSTYYADSVKGRFTISRDNAKNTVYLQMNSLKPEDTAVYYCNADGEVVDWYHPYYVEYDYWGQGTQVTVSS | low polyreactivity
6 | QVQLVESGGGLVQAGGSLRLSCAASGSIFGYNTMGWYRQAPGKERELVAAISYSGGRTYYADSVKGRFTISRDNAKNTVYVQMNSLKPEDTAVYYCAADFYFRRGTDYDYWGQGTQVTVSS | high polyreactivity
7 | QVQLVESGGGLVQAGGSLRLSCAASGSIFGYYALGWYRQAPGKERELVAAISRSGGSTYYADSVKGRFTISRDNAKNTVYLQMNSLKPEDTAVYYCAADDYPYGNYYWGQGTQVTVSS | high polyreactivity
8 | QVQLVESGGGLVQAGGSLRLSCAASGSIFGYYAMGGYIQAPGYERELVAAISYSGGSTYYADSVKGRFTISRDHAKNTVYLQMNSLKPEDTAVYYCAAVRRRTRYGYRYDYWGQGTQVTVSS | high polyreactivity
9 | QVQLVESGGGLVQAGGSLRLSCAASGSIFGYYAMGWYRLAPGKERELVAAINWRGTSTYYADSVKGRFTISRDNAKNTVYLQMISLKPEDTAVYYCAARRSVGGYGYWGQGTQVTVSS | high polyreactivity
10 | QVQLVESGGGLVQAGGSLRLSCAASGSIFGYYAMGWYRQAPGKERELVAAIRWSDGSTYYADSVKGRFTISRDNAKNTVYLQMNSLKPEDTAVYYCAAETGWLYDYWGQGTQVTVSS | high polyreactivity
11 | QVQLVESGGGLVQAGGSLRLSCAASGSIFGYYAMGWYRQAPGKERELVAAISGSGGSTYYADSVKGRFTISRDYAKNTVYLQMNSLKPEDTAVYYCAARWQWLNGYYYWGQGTHVTVSS | high polyreactivity
12 | QVQLVESGGGLVQAGGSLRLSCAASGSIFGYYAMGWYRQAPGKERELVAAISRGGRTNYADSVKGRFTISRDNAKNTVYLQMNSLKPEDTAVYYCAAESYRAYKYDYWGQGTQVTVSS | low polyreactivity
13 | QVQLVESGGGLVQAGGSLRLSCAASGSIFGYYAMGWYRQAPGKERELVAAITRSGGRTYYADSVKGRFTISRDNAKNTVYLQMNSQKPEDTAVYYCATEWLKDRYPYGYWGQGTQVTVSS | high polyreactivity
14 | QVQLVESGGGLVQAGGSLRLSCAASGSIFGYYAMGWYRQAPGKERELVAVITSGATTNYADSVKGRFTISRDNAKNTVYLQMNSLKPEDTAVYYCAARPQVKRGRYGYWGQGTQVTVSS | low polyreactivity
15 | QVQLVESGGGLVQAGGSLRLSCAASGSIFGYYAMGWYRQARGNERELGAAIRSTGSTNYADSVKGRFTISRDNAQNTVYLQMNSLKPEDTAVYYCAAGDITGGSGNWVVTPYDYGGQGTQVTVSS | high polyreactivity
16 | QVQLVESGGGLVQAGGSLRLSCAASGSIFGYYTMGWYRQAPGKERELVAAITSGGSTHYADSVKGRFTISRDNAKKTGYLQMNSLKPEDTAVYYCAKVSYYPWRYDYWGQGTQVTVSS | low polyreactivity
17 | QVQLVESGGGLVQAGGSLRLSCAASGSIFGYYVMGWYRQAPGKERELVAAISRSGGSTYYADSVKGRFTISRDHAKNTVYLQMNSLKPEDTAVYYCAARGTAERDYWGQGTQVTVSS | high polyreactivity
18 | QVQLVESGGGLVQAGGSLRLSCAASGSIFHDNAMGWYRQAPGKERELVAAITTSGGNTYYADSVKGRFTISRDNAKNTVYLQMNSLKPEDTAVYYCAADTLGKYDYWGQGTQVTVSS | low polyreactivity
19 | QVQLVESGGGLVQAGGSLRLSCAASGSIFHGYAMRWYRQAPGKERELVAAISRNGGGTYYADSVKGRFTISRDNAKNTVYLQMNSLKPEDTAVYYCAVVRYSSRYDYWGQGTQVTVSS | high polyreactivity
20 | QVQLVESGGGLVQAGGSLRLSCAASGSIFHIYAMGWYRQAPGKERELVAAISSGGRTNYADSVKGRFTISRDNAKNTVYLQMNSLKPEDTAVYYCAADWIYLPTRNYRVRVDYWGQGTQVTVSS | high polyreactivity
21 | QVQLVESGGGLVQAGGSLRLSCAASGSIFHKNAMGWYRPAPGNERELVATITSDGSTNYADSVKGRFTISRDNEKNTVYLQMNSLKPEDTAVYDCAAYSQVGGYDYWGQGTQVTVSS | low polyreactivity

Row | Sequence | polyreactivity (PSR sort gate)
22 | QVQLVESGGGLVQAGGSLRLSCAASGSIFHPYAMGWYRQAPGKEREFVAAITFRGSTYFADSVKGRFTISRDNAKITVYLQMNSLKPEDTAVYYCAARYHIFRRGSRNYDYWGQGTQVTVSS | high polyreactivity
23 | QVQLVESGGGLVQAGGSLRLSCAASGSIFHTYAMGWYRQAPGKERELVAAISGIGGSTYYADSVKGRFTISRDNAKNTVYLQMNSLKPEDTAVYYCAVELYWYPGYDYWGQGTQVTVSS | low polyreactivity
24 | QVQLVESGGGLVQAGGSLRLSCAASGSIFHTYAMGWYRQAPGKERELVAAITVSGGDTYYADSVKGRFTISRDNAKNTGYLQMNSLKPEDTAVYYCAKRIFDTFDSWGQGTQVTVSS | low polyreactivity
25 | QVQLVESGGGLVQAGGSLRLSCAASGSIFHTYTMGWYRQAPGKERELVAAITRSGGTTYYADSVKGRFTISRDNAKNTVYLQMNSLKPEDTAVYYCAATHPGAVSFRYYYWGQGTQVTVSS | high polyreactivity
26 | QVQLVESGGGLVQAGGSLRLSCAASGSIFHYYAMGWYRQAPGKERELVADITSGGSTNYADSVKGRFTISRDNAKNTVYVQMNSLKQEDTAVYYCNASFQSWLVRVPGDYWGQGTQVTVSS | low polyreactivity
27 | QVQLVESGGGLVQAGGSLRLSCAASGSIFHYYAMGWYRQATGKERELVAAISTSGGSTYYADSVKGRFTISRDNAKNTVYLQMNSLKPEDTAVYYCNAVYYYFPVGDDEYWGQGTQVTVSS | high polyreactivity
28 | QVQLVESGGGLVQAGGSLRLSCAASGSIFIFNAMGWYRQAPGKEREFVARIRRDSSTNYADSVKGRFTISRDNAKNTVYLQMNSLKPEDTAVYYCAAKRFYRRVELNSWGQGTQVTVSS | low polyreactivity
29 | QVQLVESGGGLVQAGGSLRLSCAASGSIFIGYAMGWYRQAHGKERELVAAITSGGSTYADSVKGRFTISRDNAKNPVYLQMNSLKPEDSAVYYCAARFFLVTLDYWGQGTQVTVSS | low polyreactivity
30 | QVQLVESGGGLVQAGGSLRLSCAASGSIFIGYAMGWYRQSPGKERELVAAINDSGDRTYYADSVKGRFTISRDNAKNTVYLQMNSLKPEDTAVYYCAADLVSLDPEYDYWGQGTQVTVSS | low polyreactivity
31 | QVQLVESGGGLVQAGGSLRLSCAASGSIFIQNGMGWYRQAPGKERELVASSASGGSTNYADSVKGRYTISRDNAKNTVYVQMNSLKPEDTAVYYCAARVWYSSDGSTYPYTRYDYWGQGTQVTVSS | high polyreactivity
32 | QVQLVESGGGLVQAGGSLRLSCAASGSIFIRYAMGWSRQAPGTEREWVAAITSTGSTSYADSVNGRFTISRDNAKNTVYLQMNRLTPEDTAVYYCAKEASLVQGVIGGYPYDSWGQGTQVTVSS | low polyreactivity
33 | QVQLVESGGGLVQAGGSLRLSCAASGSIFISSDRRLDRQAPGKERALVAAMRSRVGSTYYADSVKGRFTISRENGKNSDYFQMNSLKPEDTAVYYCKKDNAVDRRPWFQVTYVYWVQGTQVTVSS | low polyreactivity
34 | QVQLVESGGGLVQAGGSLRLSCAASGSIFISYAMGWYRQAPGKERELVAAISSGGSTNYADSVKGRFTISRDNAKNTVYLQMNSLKPEATAVYYCAADGWLWSFTGDGWWFDYWGQGTQVTVSS | low polyreactivity
35 | QVQLVESGGGLVQAGGSLRLSCAASGSIFISYDIGWYRHAPGKETELVAAIRSRVGSTYYADSVKGRFTISRDNAKNTVYLQMKSLKPEDTAVYYCNKDNAVDRLPWFQVTYEYWGQGTQVTVSS | low polyreactivity
36 | QVQLVESGGGLVQAGGSLRLSCAASGSIFISYNMGWYGQAPGKERELVAANNYNGGRTNYADSVKGRFTISRDKAKNTVYLQINSLKPEDTAVYYCNAAYSYSIYDYWGQGTQVTVSS | low polyreactivity
37 | QVQLVESGGGLVQAGGSLRLSCAASGSIFISYVMGWYRQAPAKERELVASISWSGGSTYYADSVKGRFTISRDNAKNTVYLQMNSLKPEDTAVYYCAADRLVRIRSYRDLGYWGQGTQVTVSS | high polyreactivity
38 | QVQLVESGGGLVQAGGSLRLSCAASGSIFITNAMGWYRQAPGKERELVAAISGRGGSTYSADSVKGRFTISRDNAKNTVYLQMNSLKPEDTAVYYCNAYSYRVSGYDYWGQGTQVTVSS | high polyreactivity
39 | QVQLVESGGGLVQAGGSLRLSCAASGSIFITYAMGWYRQAPGKERELVAAIRDSGDRTYYADSVKGRFTISRDNEKNTVYLQMNSLKPEDTAVYYCNARWQEPLKYDYWGQGTQVTVSS | low polyreactivity
40 | QVQLVESGGGLVQAGGSLRLSCAASGSIFIVNAMGWYRQAPGKERELVATITSDVDTNYADSVKGRFTISRDNAKNTVYLQMNSLKPEDTAVYYCAKESTKIYRVVEMDYWGQGTQVTVSS | low polyreactivity
41 | QVQLVESGGGLVQAGGSLRLSCAASGSIFIVYAMGWYRQAPGKERELVATISWSGGSTSYADSVKGRFTISRDNAKNTVYLQMNSLKPEDTAVYYCNTLVRITEYDSWGQGTQVTVSS | low polyreactivity
